T1: Rvs167 SH3 (RV167_YEAST), P39743
T1 chain: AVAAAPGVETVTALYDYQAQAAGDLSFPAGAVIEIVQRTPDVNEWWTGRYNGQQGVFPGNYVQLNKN

T2: Boi1 SH3 (BOI1_YEAST), P38041
T2 chain: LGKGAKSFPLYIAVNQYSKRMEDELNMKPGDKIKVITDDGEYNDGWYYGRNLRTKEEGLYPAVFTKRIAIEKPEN

T3: Myo5 SH3 (MYO5_YEAST), Q04439
T3 chain: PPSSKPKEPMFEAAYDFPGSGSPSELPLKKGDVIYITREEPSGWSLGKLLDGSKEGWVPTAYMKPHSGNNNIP

T4: Yfr024 SH3 (LSB3_YEAST), P43603
T4 chain: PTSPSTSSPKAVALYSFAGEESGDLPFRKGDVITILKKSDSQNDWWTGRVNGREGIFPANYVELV

T5: Boi2 SH3 (BOI2_YEAST), P39969
T5 chain: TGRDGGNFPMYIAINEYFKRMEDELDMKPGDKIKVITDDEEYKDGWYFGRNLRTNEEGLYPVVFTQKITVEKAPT

T6: Yhr016c SH3 (YSC84_YEAST), P32793
T6 chain: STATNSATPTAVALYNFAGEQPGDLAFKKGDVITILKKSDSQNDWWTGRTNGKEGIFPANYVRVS


Columns and labels:
Test in all cases: SPOT array
[1] = target: T1, Rvs167 SH3 (RV167_YEAST), P39743
[2] = target: T2, Boi1 SH3 (BOI1_YEAST), P38041
[3] = target: T3, Myo5 SH3 (MYO5_YEAST), Q04439
[4] = target: T4, Yfr024 SH3 (LSB3_YEAST), P43603
[5] = target: T5, Boi2 SH3 (BOI2_YEAST), P39969
[6] = target: T6, Yhr016c SH3 (YSC84_YEAST), P32793
[7] = target: Sho1 SH3 (SHO1_YEAST), P40073
Sequence of Sho1 SH3 (SHO1_YEAST), P40073 (P40073 295-366): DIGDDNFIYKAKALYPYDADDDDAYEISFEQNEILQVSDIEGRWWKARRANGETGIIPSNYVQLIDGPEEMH

Binder	normalised SPOT signal, Boehringer light units (BLU); mean over the file's lines of this peptide [1]	normalised SPOT signal, Boehringer light units (BLU); mean over the file's lines of this peptide [2]	normalised SPOT signal, Boehringer light units (BLU); mean over the file's lines of this peptide [3]	normalised SPOT signal, Boehringer light units (BLU); mean over the file's lines of this peptide [4]	normalised SPOT signal, Boehringer light units (BLU); mean over the file's lines of this peptide [5]	normalised SPOT signal, Boehringer light units (BLU); mean over the file's lines of this peptide [6]	normalised SPOT signal, Boehringer light units (BLU); mean over the file's lines of this peptide [7]
LPKLKSNPSVPHLH [YBR218C 505-518]	52.3	843	193	71.1	20.5	5.2	114
LPLPKLRPPRPTFA [YKL097C 62-75]	87.3	3930	77900	16600	3.7	4270	76.3
LPLSRVQPVQPSQT [YNL007C 295-308]	19.3	31.9	122	163	27.1	21	32.8
LQNAKNDPLPPVIE [YDL077C 56-69]	47	120	58.8	10.7	21.8	37.2	0.2
LQQRRYYPIFPGSI [YBL035C 565-578]	91	6230	279	474	472	44.5	38.8
LQYHKKNPYSPLFS [YPL020C 12-25]	208	451	318	73.4	99.3	80.3	63.3
LRISKPDPESPSKL [YBL101C 847-860]	109	242	246	205	0.6	74.5	22.3
LSFDRPPPLTPEKN [YER032W 254-267]	91.3	92.6	174	124	0	7.4	48.1
LSGTRLVPNSPLLW [YBR055C 692-705]	1460	73.7	432	1410	29.6	80.1	94
LSKLRLSPENPSNT [YKL101W 1214-1227]	37.4	471	157	27.1	33.2	7.9	54.8
LSKVRGRPMYPRPA [YBR083W 422-435]	92.6	479	752	342	37	51.9	82.7
LSPAKARPSFPHND [YOR178C 9-22]	174	807	213	2350	31.9	47.2	53.3
LSRSKPLPLTPNSK [YCL027W 415-428]	394	642	324	837	86.5	105	55900
LSYLKDLPFVPFLF [YNL143C 64-77]	44.3	62.5	213	125	6.6	18.8	22900
LTIFKRPPKQPGHQ [YOL006C 477-490]	160	135	703	1030	37.3	730	93.6
LTKIRRRPQQPLTD [YER047C 13-26]	388	3090	393	937	84.8	71.9	117
